Laboratory results taken from paper PMC2807175.

B1: OsSUT1 (Oryza sativa Japonica Group) (protein)
chain: MARGSGAGGGGGGGGGGLELSVGVGGGGGARGGGGGEAAAAVETAAPISLGRLILSGMVAGGVQYGWALQLSLLTPYVQTLGLSHALTSFMWLCGPIAGMVVQPCVGLYSDRCTSKWGRRRPYILTGCVLICLAVVVIGFSADIGYAMGDTKEDCSVYHGSRWHAAIVYVLGFWLLDFSNNTVQGPARALMADLSGRHGPGTANSIFCSWMAMGNILGYSSGSTNNWHKWFPFLKTRACCEACANLKGAFLVAVIFLSLCLVITLIFAKEVPFKGNAALPTKSNEPAEPEGTGPLAVLKGFRNLPTGMPSVLIVTGLTWLSWFPFILYDTDWMGREIYHGDPKGTDPQIEAFNQGVRAGAFGLLLNSIVLGFSSFLIEPMCRKVGPRVVWVTSNFLVCIAMAATALISFWSLKDFHGTVQKAITADKSIKAVCLVLFAFLGVPLAVLYSVPFAVTAQLAATRGGGQGLCTGVLNISIVIPQVVIALGAGPWDELFGKGNIPAFGLASGFALIGGVAGIFLLPKISKRQFRSVSMGGGH
B2: OsSUT5 (Oryza sativa Japonica Group) (protein)
chain: MEEGRRGDREGKSAAGWTALSTTKTTLEEKRRLQANGSVGGDAGTSGFRRIVRLFFACMVAGGIQYGWALQLSLLSPYSQTLGISHSYVSLTWICGPIAGFVVQPIVGYYSDRCTMKMGRRRPFILVGCLIICISVMIIGFSADIGRHLGDTKEHCSTYTGPRWSAAMVYIVGFWFLDFANNTVQGPARAMMADLSAGHHGPNVGQSIFSLWMAIGSVLGYLSGANGKWHEWFPWLKTAACCDACANLKGAFFTAVLLIVVSMTVTMYLADEMPLDKQDVDTSGGGGCAVFVDLFKSLRNLPPAMFKVLAVTAVTWLSWFPFIQYNTDWMGREIYHGEPQGTAAKADVYDAGVREGAMGLLFCSVALGVTSFVIPKLCRRLTSKVVWSISNFLVFALMAVMVAVGMVSMRGYRPSLAAGLTGPDPTLKAVALVVFALIGIPQAVLFSVPWAVASEVTAEEGGGQGLAIGVLNIAIVVPQLVIALTAGPIDGAFNKGNTPAFGIGGAFAFICGVLALIWLPKTRGVSNAAVVAGGH

Substrate: OC[C@H]1O[C@@](CO)(O[C@H]2O[C@H](CO)[C@@H](O)[C@H](O)[C@H]2O)[C@@H](O)[C@@H]1O
Assay: cells, lysate or membranes
Conditions: pH 5.6, Na Ringer, membrane potential -117 mV, H+ symport

| Protein | K0.5 |
| --- | --- |
| B1 | 7.50 mM |
| B2 | 2.32 mM |
